Measured values: US20250136692A1
Numbering of substitutions follows the chain as printed.

B1: 4G9-1 (antibody, human IgG1, kappa, V domains shown)
VH: QVQLVQSGAEVKKPGASVKVSCKASGYTFTTYGINWVRQATGQGLEWMGWINTYSGVPGYAQKFQGRVTMTLNTSISTAYMELSSLRSEDTAVYYCARGGRGIAYWGQGTLVTVSS
VL: DIQLTQSPSSLSASVGDRVTITCRASQGISNSLAWFQQKPGKVPKRLIYAASNLQSGVPSRFSGSGSGTEFTLTISSLQPEDFATYYCQQSYSTPYTFGQGTKLEIKR
B2: 4G9-9 (antibody, human IgG1, kappa, V domains shown)
VH: B1 VH with E46K, G100V, R101H, I103V, A104S
VL: EIVMTQSPATLSVSPGERATLSCRASQSIGTSLHWYQQKPGGAPRLLIKYASESITGIPARFSGSGSGTEFTLTISSLQSEDFAVYYCQQSNSWPYTFGQGTKLEIKR
B3: 4G9-8 (antibody, human IgG1, kappa, V domains shown)
VH: B1 VH with G99V, G100E, I103D
VL: EIVLTQSPSSLSASVGDRVTITCRASQDIRRDFGWYQQKPGLAPELLIYDASRLRSGVPSRFSGSGSGTLFTFTITNLQPEDFATYYCLQDYDFPRTFGQGTKVDIKR
B4: 4G9-3 (antibody, human IgG1, kappa, V domains shown)
VH: B1 VH with G102E, I103S
VL: B2 VL
B5: 4G9-5 (antibody, human IgG1, kappa, V domains shown)
VH: B1 VH with G100V, G102V, I103F, A104Y, Y105H
VL: B2 VL
B6: 4G9-10 (antibody, human IgG1, kappa, V domains shown)
VH: B1 VH with G100S, R101K, I103D
VL: DIVMTQSPSSLSASVGDRVTITCRASQSISTWLAWFQQKPGKAPKLLIYKASSLKSGVPSRFSGSGSGTEFTLTISSLQPDDFATYYCQQSYSTPWTFGQGTKLEIKR
B7: 5C2-3 (antibody, human IgG1, kappa, V domains shown)
VH: QVQLVQSGAEVKKPGASVKVSCKASGYTFTSYWMHWVRQAPGQGLEWMGRIHPSDSDTNYNQKFKGRVTLTVDTSTSTAYMELSSLRSEDTAVYYCAPKGNYVVRFAYWGQGTLVTVSS
VL: DIVMTQSPSSLSASVGDRVTITCRASQGIRNDLGWYQQKPGKAPKLLIYAASSLQSGVPSRFSGSGSDTDFTLTISSLQPEDFATYYCLQDYNYPWTFGQGTKVDIKR
B8: 5C2-6 (antibody, human IgG1, kappa, V domains shown)
VH: B7 VH with K99Y, G100V, N101D, Y102L, V103E, V104S, R105G
VL: DIAMTQTPSSLSASIGDRVTIACRASQGISSALAWYQQKPGRTPKLLIFDASTLQSGVPSRFSGSGSGTDFTLTISSLQPEDFATYYCQQFNTYSSVTFGQGTRLEIKR
B9: 5C2-1 (antibody, human IgG1, kappa, V domains shown)
VH: QVQLVQSGAEVKKPGASVKVSCKASGYTFNSYWMHWVRQAPGQGLEWMGRIHPRGIHTNYNQKFKGRVTLTVDTSTSTAYMELSSLRSEDTAVYYCAPSSSYAWAFAHWGQGTLVTVSS
VL: DIQMTQSPSSLSASVGDRVTITCRASQDVSTALAWYQQKPGKAPKLLIYWASTRHSGVPDRFSGSGSGTDFTLTISSLQPEDFATYYCQQHYRSPGTFGGGTKVEIKR
B10: 5C2-9 (antibody, human IgG1, kappa, V domains shown)
VH: QVQLVQSGAEVKKPGASVKVSCKASGQTFTNYLMHWVRQAPGQGLEWMGRIPLSDRDTNYNQKFKGRVTLTVDTSTSTAYMELSSLRSEDTAVYYCAPYGRSASGFSSWGQGTLVTVSS
VL: B9 VL with H91G, Y92S, R93S, S94T, G96L
B11: 5C2-8 (antibody, human IgG1, kappa, V domains shown)
VH: QVQLVQSGAEVKKPGASVKVSCKASGYTFNSYLMHWVRQAPGMGLEWMGRIRPNYSDTNYNQKFKGRVTLTVDTSTSTAYMELSSLRSEDTAVYYCAPYGNNASGFSYWGQGTLVTVSS
VL: B9 VL with G96W
B12: 5C2-7 (antibody, human IgG1, kappa, V domains shown)
VH: B7 VH with Q43M, S54I, D55Y, S56R, K99Y, G100V, V103G, V104D, R105G
VL: B9 VL with S10T, S56I, Q89H, H91D, R93I, S94T, G96R
B13: 5C2-4 (antibody, human IgG1, kappa, V domains shown)
VH: B7 VH with S31R, S54T, D57V, K99D, G100V, V103A, V104R, R105A, Y108H
VL: B9 VL with R93G, G96W
B14: 5C2-2 (antibody, human IgG1, kappa, V domains shown)
VH: QVQLVQSGAEVKKPGASVKVSCKASGQTFTSYRMHWVRQAPGQGLEWMGRILPIRSDTNYNQKFKGRVTLTVDTSTSTAYMELSSLRSEDTAVYYCARDAGYGSLFAAWGQGTLVTVSS
VL: B9 VL with Y92D, R93S
B15: 5C2-5 (antibody, human IgG1, kappa, V domains shown)
VH: QVQLVQSGAEVKKPGASVKVSCKASGYTFGIYWMHWVRQAPGQGLEWMGRILPSNGYTNYNQKFKGRVTLTVDTSTSTAYMELSSLRSEDTAVYYCAPYGIYTRDFSHWGQGTLVTVSS
VL: B9 VL with H91R, Y92D, R93T, S94T, G96R

Biological target: hPD-1-HIS (human) (UniProt Q15116)
Sequence (Q15116 25-167 limits assumed): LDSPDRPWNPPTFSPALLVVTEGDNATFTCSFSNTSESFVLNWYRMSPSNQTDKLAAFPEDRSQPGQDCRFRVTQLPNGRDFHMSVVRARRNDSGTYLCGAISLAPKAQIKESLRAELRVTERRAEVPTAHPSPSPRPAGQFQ
Assay: ELISA, plate-coated PD-1 protein, anti-human IgG detection

| hPD-1-HIS Binding (OD 450) | Binder |
| --- | --- |
| 0.874 OD 450 | B1 |
| 0.31 OD 450 | B2 |
| 0.346 OD 450 | B3 |
| 0.451 OD 450 | B4 |
| 0.383 OD 450 | B5 |
| 0.287 OD 450 | B6 |

Biological target: hPD-1-HIS (human) (UniProt Q15116)
Assay: ELISA, plate-coated PD-1 protein, protocol of Example 1

| hPD-1-HIS Binding (OD 450) | Binder |
| --- | --- |
| 0.345 OD 450 | B7 |
| 0.267 OD 450 | B8 |
| 0.791 OD 450 | B9 |
| 0.255 OD 450 | B10 |
| 0.262 OD 450 | B11 |
| 0.264 OD 450 | B12 |
| 0.312 OD 450 | B13 |
| 0.395 OD 450 | B14 |
| 0.286 OD 450 | B15 |
